Results published in PMC2172933.

Molecular target: neural cell adhesion molecule 140 (NCAM140), rat, expressed in CHO cells (rat) (UniProt P13596)
Assay: co-IP

Sequence of UniProt P13596 (P13596 20-858): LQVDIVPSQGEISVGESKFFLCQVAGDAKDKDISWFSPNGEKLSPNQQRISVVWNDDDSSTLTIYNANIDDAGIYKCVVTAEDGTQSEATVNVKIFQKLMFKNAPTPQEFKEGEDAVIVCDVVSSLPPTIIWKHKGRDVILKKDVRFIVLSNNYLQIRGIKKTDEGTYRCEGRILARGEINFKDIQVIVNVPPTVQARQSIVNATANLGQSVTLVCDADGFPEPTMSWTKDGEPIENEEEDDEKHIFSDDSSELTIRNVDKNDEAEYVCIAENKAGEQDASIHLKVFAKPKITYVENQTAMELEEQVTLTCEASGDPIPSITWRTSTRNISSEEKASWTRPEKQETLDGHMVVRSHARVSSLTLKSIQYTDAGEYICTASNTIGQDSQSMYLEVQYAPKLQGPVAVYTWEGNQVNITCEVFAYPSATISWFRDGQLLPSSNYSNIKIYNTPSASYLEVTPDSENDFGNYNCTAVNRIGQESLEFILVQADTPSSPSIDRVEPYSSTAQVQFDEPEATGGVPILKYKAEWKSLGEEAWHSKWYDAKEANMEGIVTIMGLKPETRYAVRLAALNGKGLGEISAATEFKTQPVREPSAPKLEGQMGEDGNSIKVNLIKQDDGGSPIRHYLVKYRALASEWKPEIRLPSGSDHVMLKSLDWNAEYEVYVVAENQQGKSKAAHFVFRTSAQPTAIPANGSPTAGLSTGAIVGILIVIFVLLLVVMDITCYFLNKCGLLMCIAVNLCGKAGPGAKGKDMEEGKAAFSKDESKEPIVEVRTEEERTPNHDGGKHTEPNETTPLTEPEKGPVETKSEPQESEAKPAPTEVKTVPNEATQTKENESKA

percent of the amount of spectrin that coprecipitated with NCAM180 (set to 100%): 69.8%
Substance: βI spectrin, endogenous in CHO cells, A0A9J7GYU9 1-2329
